Where two headings read alike, the source gives them in different places.
Key:
[1] = molecular target: T1, human PSMA (prostate specific membrane antigen), full length (human, UniProt Q04609 1-750); experiment: cell-based or functional assay
[2] = molecular target: T1, human PSMA (prostate specific membrane …); experiment: flow cytometry cell binding assay, bispecific antibody titrated on LNCaP cells (human PSMA)
Experimental: (§1) PSMA×CD3 bispecific antibodies were tested for binding to PSMA positive cell lines LNCAP, human PSMA-HEK, Chimpanzee-PSMA-HEK and Cynomolgous monkey PSMA-HEK. To assess the binding capabilities of the PSMA bispecific antibodies, the cell-binding assay was utilized (described previously). Briefly, PSMA expressing tumor cells are bound by bispecific antibodies at known concentrations and the bound antibody is detected by an anti-human kappa light chain PE conjugated detection reagent (Invitrogen). The Mean Fluorescents Intensity (MFI) is the measure of bound bispecific antibody. The MFI is converted to a relative EC₅₀. EC₅₀ is a commonly used dose-response curve, where the half maximal effective concentration or the EC₅₀ point is defined as the inflection point of the curve. EC₅₀ s were determined by measuring cell bound bispecific and known concentrations. […] The dose response curves were then diluted down to that of background or no bispecific binding. The inflection point of this curve reflects the EC₅₀ point. The calculated EC₅₀ is determined by taking the ug/ml amount of bispecific antibody at the EC₅₀ point and converting it to a molarity value based on the MW of the bispecific antibody. Bispecific antibodies were normalized for protein concentration and then incubated with the same number of cells expressing either human or cyno PSMA. The MFI at each concentration was collected by flow cytometry and plotted as a function of concentration. Data was transformed via log 10 and then plotted. Nonlinear regression of binding curves was done to determine EC₅₀ s. These relative values were used for ranking PSMA binding to target cells.
PSMA×CD3 bispecific antibodies were tested for binding to PSMA positive cell line, LNCAP, to PSMA negative cell line, PC3. To assess the binding capabilities of the PSMA bispecific antibodies, the cell-binding assay was utilized (described previously). Bispecific antibodies were normalized for protein concentration and then incubated with the same number of cells expressing either human or cyno PSMA. The MFI at each concentration was collected by flow cytometry and plotted as a function of concentration.

[3] = molecular target: T1, human PSMA (prostate specific membrane …); experiment: as above; remark: listed apart in the source
Experimental: as §1, with “The MFI at each concentration was collected by flow cytometry and plotted as a function of concentration. Data was transformed via log 10 and then plotted. Nonlinear regression of binding curves was done to determine EC₅₀ s. These relative values were used for ranking PSMA binding to target cells.” left out

[4] = molecular target: T1, human PSMA (prostate specific membrane …); experiment: flow cytometry, bispecific antibody titrated on LNCaP cells (human PSMA), anti-human kappa light chain PE
Experimental: as §1

[5] = molecular target: T1, human PSMA (prostate specific membrane …); experiment: FACS, whole cell binding
[6] = molecular target: T2, Cynomolgous monkey PSMA, full length (Macaca fascicularis, UniProt Q04609 1-750 (human entry)); experiment: FACS, whole cell binding
T2 construct: On transfected HEK293F cells; also called cyno PSMA; EHH56646.1
T2 chain: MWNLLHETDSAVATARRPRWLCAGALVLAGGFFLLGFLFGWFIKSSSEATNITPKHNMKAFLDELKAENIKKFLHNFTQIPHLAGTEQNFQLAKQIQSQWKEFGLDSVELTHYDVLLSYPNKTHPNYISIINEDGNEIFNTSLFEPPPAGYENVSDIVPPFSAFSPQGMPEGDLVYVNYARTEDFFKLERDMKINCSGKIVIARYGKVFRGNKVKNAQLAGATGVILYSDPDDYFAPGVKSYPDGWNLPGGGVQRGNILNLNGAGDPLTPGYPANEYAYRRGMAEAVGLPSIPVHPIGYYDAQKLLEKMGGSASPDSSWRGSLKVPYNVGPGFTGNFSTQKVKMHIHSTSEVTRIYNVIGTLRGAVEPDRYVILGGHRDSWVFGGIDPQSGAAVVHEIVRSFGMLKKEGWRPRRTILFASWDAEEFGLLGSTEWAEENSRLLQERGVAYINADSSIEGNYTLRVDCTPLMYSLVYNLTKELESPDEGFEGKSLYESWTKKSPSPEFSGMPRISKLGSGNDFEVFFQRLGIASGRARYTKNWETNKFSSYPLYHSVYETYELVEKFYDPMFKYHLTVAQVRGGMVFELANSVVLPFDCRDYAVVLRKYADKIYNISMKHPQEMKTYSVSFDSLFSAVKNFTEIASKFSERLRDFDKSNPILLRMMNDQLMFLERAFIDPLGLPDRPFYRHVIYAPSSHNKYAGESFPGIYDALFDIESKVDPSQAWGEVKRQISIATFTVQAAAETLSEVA

[7] = molecular target: T2, Cynomolgous monkey PSMA, full length; experiment: flow cytometry, bispecific antibody titrated on cyno PSMA (PSMG5) HEK cells, anti-human kappa light chain PE
Experimental: as §1, with “The MFI at each concentration was collected by flow cytometry and plotted as a function of concentration. Data was transformed via log 10 and then plotted. Nonlinear regression of binding curves was done to determine EC₅₀ s. These relative values were used for ranking PSMA binding to target cells.” left out

B1: PS3B27 (bispecific antibody, human IgG4 S228P, kappa, lambda, F234A L235A)
heavy 1: not shown
light 1: not shown
heavy 2: EVQLVESGGGLVQPGGSLRLSCAASGFTFNTYAMNWVRQAPGKGLEWVARIRSKYNNYATYYAASVKGRFTISRDDSKNSLYLQMNSLKTEDTAVYYCARHGNFGNSYVSWFAYWGQGTLVTVSSASTKGPSVFPLAPCSRSTSESTAALGCLVKDYFPEPVTVSWNSGALTSGVHTFPAVLQSSGLYSLSSVVTVPSSSLGTKTYTCNVDHKPSNTKVDKRVESKYGPPCPPCPAPEAAGGPSVFLFPPKPKDTLMISRTPEVTCVVVDVSQEDPEVQFNWYVDGVEVHNAKTKPREEQFNSTYRVVSVLTVLHQDWLNGKEYKCKVSNKGLPSSIEKTISKAKGQPREPQVYTLPPSQEEMTKNQVSLTCLVKGFYPSDIAVEWESNGQPENNYKTTPPVLDSDGSFLLYSKLTVDKSRWQEGNVFSCSVMHEALHNHYTQKSLSLSLGK
light 2: QTVVTQEPSLTVSPGGTVTLTCRSSTGAVTTSNYANWVQQKPGQAPRGLIGGTNKRAPGTPARFSGSLLGGKAALTLSGVQPEDEAEYYCALWYSNLWVFGGGTKLTVLGQPKAAPSVTLFPPSSEELQANKATLVCLISDFYPGAVTVAWKADSSPVKAGVETTTPSKQSNNKYAASSYLSLTPEQWKSHRSYSCQVTHEGSTVEKTVAPTECS
notes: IgG4 PAA; PSMA arm chains first, then CD3 arm (F405L, R409K); also called PSMB127 x CD3B219; PS2B27
B1 was tested. Which “EC50, T-cell dependent cytotoxicity (caspase 3/7), C-42B, donor M2550” value [1] did it give?
The value was 0.11 nM.

What about the “EC50, T-cell dependent cytotoxicity (caspase 3/7), C-42B, donor M5524” value [1] of the same binder?
The value was 0.06 nM.

And the “EC50, T-cell dependent cytotoxicity (caspase 3/7), C-42B, donor M5772” value [1]?
Its value is 0.03 nM.

And the “EC50, T-cell dependent cytotoxicity (caspase 3/7), C-42B, donor M7259” value [1]?
The value was 0.06 nM.

What about the “EC50, T-cell dependent cytotoxicity (caspase 3/7), C-42B, donor M7444” value [1] of the same binder?
Its value is 0.05 nM.

And the “EC50, T-cell dependent cytotoxicity (caspase 3/7), LNCaP FGc, donor M2550” value [1]?
The value was 0.27 nM.

And the “EC50, T-cell dependent cytotoxicity (caspase 3/7), LNCaP FGc, donor M5524” value [1]?
Its value is 0.09 nM.

What about the “EC50, T-cell dependent cytotoxicity (caspase 3/7), LNCaP FGc, donor M5772” value [1] of the same binder?
The value was 0.04 nM.

And the “EC50, T-cell dependent cytotoxicity (caspase 3/7), LNCaP FGc, donor M7259” value [1]?
The value was 0.05 nM.

What about the “EC50, T-cell dependent cytotoxicity (caspase 3/7), LNCaP FGc, donor M7444” value [1] of the same binder?
The value was 0.09 nM.

What about the “EC50 (read off the curve)” value [2] of the same binder?
The value was ~7 nM.

What about the “EC50 (read off the curve)” value [3] of the same binder?
The value was ~7 nM.

B2: PS3B23 (bispecific antibody, human IgG4 S228P, kappa, lambda, F234A L235A)
heavy 1: not shown
light 1: not shown
heavy 2: EVQLVESGGGLVQPGGSLRLSCAASGFTFNTYAMNWVRQAPGKGLEWVARIRSKYNNYATYYAASVKGRFTISRDDSKNSLYLQMNSLKTEDTAVYYCARHGNFGNSYVSWFAYWGQGTLVTVSSASTKGPSVFPLAPCSRSTSESTAALGCLVKDYFPEPVTVSWNSGALTSGVHTFPAVLQSSGLYSLSSVVTVPSSSLGTKTYTCNVDHKPSNTKVDKRVESKYGPPCPPCPAPEAAGGPSVFLFPPKPKDTLMISRTPEVTCVVVDVSQEDPEVQFNWYVDGVEVHNAKTKPREEQFNSTYRVVSVLTVLHQDWLNGKEYKCKVSNKGLPSSIEKTISKAKGQPREPQVYTLPPSQEEMTKNQVSLTCLVKGFYPSDIAVEWESNGQPENNYKTTPPVLDSDGSFLLYSKLTVDKSRWQEGNVFSCSVMHEALHNHYTQKSLSLSLGK
light 2: QTVVTQEPSLTVSPGGTVTLTCRSSTGAVTTSNYANWVQQKPGQAPRGLIGGTNKRAPGTPARFSGSLLGGKAALTLSGVQPEDEAEYYCALWYSNLWVFGGGTKLTVLGQPKAAPSVTLFPPSSEELQANKATLVCLISDFYPGAVTVAWKADSSPVKAGVETTTPSKQSNNKYAASSYLSLTPEQWKSHRSYSCQVTHEGSTVEKTVAPTECS
notes: IgG4 PAA; PSMA arm chains first, then CD3 arm (F405L, R409K); also called PSMB123 x CD3B219
Does B2 bind [4]?
Result: binds

B3: PS3B30 (bispecific antibody, human IgG4 S228P, kappa, lambda, F234A L235A)
heavy 1: not shown
light 1: not shown
heavy 2: EVQLVESGGGLVQPGGSLRLSCAASGFTFNTYAMNWVRQAPGKGLEWVARIRSKYNNYATYYAASVKGRFTISRDDSKNSLYLQMNSLKTEDTAVYYCARHGNFGNSYVSWFAYWGQGTLVTVSSASTKGPSVFPLAPCSRSTSESTAALGCLVKDYFPEPVTVSWNSGALTSGVHTFPAVLQSSGLYSLSSVVTVPSSSLGTKTYTCNVDHKPSNTKVDKRVESKYGPPCPPCPAPEAAGGPSVFLFPPKPKDTLMISRTPEVTCVVVDVSQEDPEVQFNWYVDGVEVHNAKTKPREEQFNSTYRVVSVLTVLHQDWLNGKEYKCKVSNKGLPSSIEKTISKAKGQPREPQVYTLPPSQEEMTKNQVSLTCLVKGFYPSDIAVEWESNGQPENNYKTTPPVLDSDGSFLLYSKLTVDKSRWQEGNVFSCSVMHEALHNHYTQKSLSLSLGK
light 2: QTVVTQEPSLTVSPGGTVTLTCRSSTGAVTTSNYANWVQQKPGQAPRGLIGGTNKRAPGTPARFSGSLLGGKAALTLSGVQPEDEAEYYCALWYSNLWVFGGGTKLTVLGQPKAAPSVTLFPPSSEELQANKATLVCLISDFYPGAVTVAWKADSSPVKAGVETTTPSKQSNNKYAASSYLSLTPEQWKSHRSYSCQVTHEGSTVEKTVAPTECS
notes: IgG4 PAA; PSMA arm chains first, then CD3 arm (F405L, R409K); also called PSMB130 x CD3B219
Which EC50 [5] does the source give for B3 here?
Its EC50 is 8 to 8.5 nM.

And the EC50 [6]?
Its EC50 is 37.8 to 57 nM.

B4: PS3B25 (bispecific antibody, human IgG4 S228P, kappa, lambda, F234A L235A)
heavy 1: not shown
light 1: not shown
heavy 2: EVQLVESGGGLVQPGGSLRLSCAASGFTFNTYAMNWVRQAPGKGLEWVARIRSKYNNYATYYAASVKGRFTISRDDSKNSLYLQMNSLKTEDTAVYYCARHGNFGNSYVSWFAYWGQGTLVTVSSASTKGPSVFPLAPCSRSTSESTAALGCLVKDYFPEPVTVSWNSGALTSGVHTFPAVLQSSGLYSLSSVVTVPSSSLGTKTYTCNVDHKPSNTKVDKRVESKYGPPCPPCPAPEAAGGPSVFLFPPKPKDTLMISRTPEVTCVVVDVSQEDPEVQFNWYVDGVEVHNAKTKPREEQFNSTYRVVSVLTVLHQDWLNGKEYKCKVSNKGLPSSIEKTISKAKGQPREPQVYTLPPSQEEMTKNQVSLTCLVKGFYPSDIAVEWESNGQPENNYKTTPPVLDSDGSFLLYSKLTVDKSRWQEGNVFSCSVMHEALHNHYTQKSLSLSLGK
light 2: QTVVTQEPSLTVSPGGTVTLTCRSSTGAVTTSNYANWVQQKPGQAPRGLIGGTNKRAPGTPARFSGSLLGGKAALTLSGVQPEDEAEYYCALWYSNLWVFGGGTKLTVLGQPKAAPSVTLFPPSSEELQANKATLVCLISDFYPGAVTVAWKADSSPVKAGVETTTPSKQSNNKYAASSYLSLTPEQWKSHRSYSCQVTHEGSTVEKTVAPTECS
notes: IgG4 PAA; also called PSMB87 x CD3B219
Does B4 bind [7]?
Result: binds

From patent US20200024360A1 (Janssen / Centocor, published 2020)
